In PMC3434267:

Legend:
[1] = molecular target: mGluR5 (endogenous, mouse) (mouse (endogenous in brain, spinal cord and cultured cortical neurons)) (UniProt Q3UVX5); assay: co-IP
[2] = molecular target: Homer (pan-Homer immunoprecipitation), DIV 14 cortical neurons (Figure 5c) (mouse (endogenous in cultured cortical neurons)); assay: co-IP

| co-IP in Preso1^−/− brain, % of WT [1] | co-IP in BDNF-treated Preso1^−/− neurons, % of untreated WT [2] | co-IP in DHPG-treated Preso1^−/− neurons, % of untreated WT [2] | co-IP in WT neurons after BDNF 30 min, % of untreated [2] | co-IP in WT neurons after DHPG 30 min, % of untreated (% of untreated) [2] | co-IP in untreated Preso1^−/− neurons, % of untreated WT (BDNF series) [2] | co-IP in untreated Preso1^−/− neurons, % of untreated WT (DHPG series) [2] | Substance |
| --- | --- | --- | --- | --- | --- | --- | --- |
| 64.4 % of WT | – | – | – | – | – | – | ERK1/2, mouse forebrain (Figure 5b) |
| – | 69.8% | 54% | 158% | 157 | 65.3% | 47% | mGluR5 (endogenous, mouse) (from UniProt Q3UVX5 19-1203) (receptor) |
